Patent US20260043816A1 (AC IMMUNE, published 2026)
Values belong to the binder of their own block, whether it stands above or below them. Square brackets hold non-standard residues; d marks the D form. Ends that are not written are not given here. * marks the point of attachment. Biotin = O=C1N[C@H]2[C@H](CS[C@H]2CCCCC(=O)*)N1; pS = N[C@@H](COP(=O)(O)O)C(=O)O

Columns and labels:
[1] = biological target: T1, biotinylated non-phosphorylated TDP-43 peptide 366-414 (human, biotin on the N-terminus); experiment: capture ELISA, antibody on anti-mouse IgG, biotinylated peptide
T1 peptide: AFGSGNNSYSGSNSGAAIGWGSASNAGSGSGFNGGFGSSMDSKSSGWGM
Method: (§1) Briefly, for capture detection in ELISA, wells of 96-well plates were coated with 5 μg/mL goat anti-mouse IgG (Fc gamma fragment specific), in carbonate buffer, overnight at 4° C. Plates were then washed with 0.05% Tween-20/PBS and blocked with 1% bovine serum albumin (BSA) in 0.05% Tween-20/PBS for 1 hour at 37° C. Phospho TDP-43 antibodies were then added at 5 μg/mL and incubated for 2 hours at 37° C. after which the plates were washed as described above. Biotinylated peptides representing each of the phospho sites, or non-phosphorylated, were incubated at 0.5 mM in 0.1% BSA and PBS for 1 hour at 37° C. after which the plates were washed. A streptavidin-HRP-conjugate (R&D Systems, Minnesota, United States) was added at 1/200 dilution in 0.05% Tween-20/1% BSA in PBS for 45 minutes in the dark at ambient temperature. After the final wash, plates were incubated with TMB (Sigma-Aldrich, Switzerland), an HRP substrate solution, and read at 405 nm using an ELISA plate reader (Tecan, Switzerland).

[2] = biological target: T2, biotinylated TDP-43 phospho peptide 370-384 (pS375) (human); experiment: as above
T2 peptide: Biotin-GNNSY[pS]GSNSGAAIG
Method: as §1

[3] = biological target: T3, biotinylated TDP-43 phospho peptide 370-384 (pS375 and pS379) (human); experiment: as above
T3 peptide: Biotin-GNNSY[pS]GSN[pS]GAAIG
Method: as §1

[4] = biological target: T4, biotinylated TDP-43 phospho peptide 370-384 (pS379) (human); experiment: as above
T4 peptide: Biotin-GNNSYSGSN[pS]GAAIG
Method: as §1

[5] = biological target: T5, biotinylated TDP-43 phospho peptide 401-413 (pS409 and pS410) (human); experiment: as above
T5 peptide: Biotin-FGSSMDSK[pS][pS]GWG
Method: as §1

[6] = biological target: T6, biotinylated TDP-43 phospho peptide 401-413 (pS409) (human); experiment: as above
T6 peptide: Biotin-FGSSMDSK[pS]SGWG
Method: as §1

[7] = biological target: T7, biotinylated TDP-43 phospho peptide 401-413 (pS410) (human); experiment: as above
T7 peptide: Biotin-FGSSMDSKS[pS]GWG
Method: as §1

Peptide 29 [8] = biological target: T8, Peptide 29 (human, phosphoserine at pS409 and pS410 (human TDP-43 numbering, in the SEQ ID NO: 9 part); Trioxatridecan-succinamic acid (Ttds) linker between SEQ ID NO: 7 and SEQ ID NO: 9); experiment: pairing sandwich ELISA, biotinylated antibody as detector, target titrated
T8 peptide: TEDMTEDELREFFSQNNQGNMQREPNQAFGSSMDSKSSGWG
Method: (§2) The capacity of antibodies to bind phospho TDP-43 and TDP-43 was determined using a sandwich enzyme-linked immunosorbent assay (ELISA), where each antibody was paired with a second TDP-43 antibody previously characterized for TDP-43 binding and performance in sandwich immunoassays, ACI-7071-809F12-Ab1-rec2 (as described in WO2020234473) or ACI-7069-636E5-Ab1 (as described in WO2020234473). ELISA plates (Nunc™ Edge™ 96-Well, Non-Treated, Flat-Bottom Microplate, ThermoFisher Scientific, Denmark) were coated with 5 μg/mL of anti-phospho TDP-43 or anti-TDP-43 antibodies in carbo/bicarbonate buffer, overnight at 4° C. Plates were then washed with 0.05% Tween-20/PBS and blocked with 1% bovine serum albumin (BSA) in 0.05% Tween-20/PBS for 1 hour at 37° C. The plates were then washed again as described above.
(§3) Serial-dilutions of target peptide or protein were then added to the plates. For assays with anti-phospho TDP-43 antibodies, one of four peptide conjugates (peptides 11, 23, 28, or 29) each composed of two TDP-43 sequences, one phosphorylated and one non-phosphorylated, conjugated together with a Trioxatridecan-succinamic acid linker (Ttds, binding regions and sequences shown in Table 4) were used. Peptides 11, 23, 28, and 29 were added in a 10-fold serial dilution starting at 0.5 μM. […] The plate was read at 450 nm using an ELISA plate reader (Tecan, Switzerland).

Peptide 29 [9] = biological target: T8, Peptide 29; experiment: SPR Biacore 8K, antibody captured, peptide analyte, single-cycle kinetics, 1:1 fit
Method: (§4) Each cycle started with the non-covalent capture of the antibody which were diluted in running buffer to a final concentration of 5 μg/mL and injected for 120 sec with a flow rate of 10 μL/min. Antibodies being measured were captured in channels […], leaving Fc 1 as a blank Fc. Capture levels were evaluated following a 120 sec stabilization period after each antibody injection. ACI-7071-809F12-Ab1-rec2 was used as control, binding to the non-phosphorylated sequences represented in peptides 28 and 29.
(§5) Injections of peptides 28 or 29 were performed using single-cycle kinetics with increasing concentrations ranging from 1.2 to 100 nM prepared as a 3-fold serial dilution. Injections were performed with contact times of 300 sec/injection at a flow rate of 30 μL/min. A dissociation phase of 900 sec followed the final injection. Sensor surface was regenerated by two injection of 10 mM Glycine-HCl pH 1.7 at a flow rate of 10 μL/min for 60 sec, followed by a stabilization period of 120 sec. Results obtained from single-cycle kinetics were double-referenced using the blank Fc 1 and buffer cycles and evaluated by Biacore 8K evaluation software (Cytiva). The following kinetic parameters were obtained using the 1:1 binding fit model with variable Reflective Index (RI): association rate constant (ka), dissociation rate constant (kd), affinity constant (KD) and saturation response (Rmax).

Peptide 29 [10] = biological target: T8, Peptide 29; experiment: pairing sandwich ELISA, antibody coated as capture, target titrated
Method: as §2, §3

Peptide 29 [11] = biological target: T8, Peptide 29; experiment: SPR Biacore 8K, antibody from purified hybridoma supernatant captured, peptide analyte, 1:1 fit
Method: as §4, §5

[12] = biological target: T9, recombinant full length TDP-43 (SEQ ID NO: 1, FL TDP-43) (human, UniProt Q13148 1-414); experiment: pairing sandwich ELISA, biotinylated antibody as detector, FL TDP-43 titrated
T9 construct: also called recombinant human soluble FL TDP-43; soluble human TDP-43
Method: as §2, §3

[13] = biological target: T9, recombinant full length TDP-43 (SEQ ID …); experiment: pairing sandwich ELISA, antibody coated as capture, FL TDP-43 titrated
Method: as §2
Serial-dilutions of target peptide or protein were then added to the plates. For assays with anti-phospho TDP-43 antibodies, one of four peptide conjugates (peptides 11, 23, 28, or 29) each composed of two TDP-43 sequences, one phosphorylated and one non-phosphorylated, conjugated together with a Trioxatridecan-succinamic acid linker (Ttds, binding regions and sequences shown in Table 4) were used. Peptides 11, 23, 28, and 29 were added in a 10-fold serial dilution starting at 0.5 μM. For assays with TDP-43 antibodies only, recombinant full length TDP-43 (SEQ ID NO: 1, FL TDP-43) was diluted 3-fold from 21.9 pM. Plates were incubated for 1 hour at 37° C., and then washed. […] PEG-biotinylated phospho TDP-43 or TDP-43 antibodies were then respectively added to the wells and incubated for 1 hour at 37° C., after which the plates were washed. Horseradish peroxidase (HRP)-conjugated streptavidin (R&D Systems, Switzerland) was added at 1/200 dilution in 1% BSA and 0.05% Tween-20/PBS for 45 min at room temperature. […] The plate was read at 450 nm using an ELISA plate reader (Tecan, Switzerland).

B5: ACI-8072-946.8H6-Ab1 (antibody, V domains shown)
VH: EEHLVESGGGLVKPGGSLKLSCAASGFTFSDYGMQWVRQAPEKGLEWVAYISSGSSTIYYEDTVKGRFTISRDNAKNTLFLQMTSLRSEDTAMYYCVRPYDNYGQGTLVTVSA
VL: DVLMTQTPLSLPVSLGDQASISCRSSQSIVHSNGNTYLEWYLQKPGQSPKLLIYKVSNRFSGVPDRFSGSGSGTDFTLKISRVEAEDVGVYYCFQGSHVPRTFGGGTKLEIK
notes: also called 946.8H6D10; pS409/pS410 TDP-43 antibody
EC50 (Peptide 29 [8]): 1.12 nM | Kd (Peptide 29 [9]): 3.28 nM | koff (Peptide 29 [9]): 0.00469 s⁻¹ | kon (Peptide 29 [9]): 1.43e+06 M⁻¹ s⁻¹ | EC50 (Peptide 29 [10]): 0.111 nM

B6: ACI-8072-946.9D6-Ab1 (antibody, V domains shown)
VH: EEHLVESGGGLVKPGGSLKLSCAASGFTFSDYGMQWVRQAPEKGLEWVAYISSGSSTIYYEDTVKGRFTISRDNAKNTLFLQMTSLRSEDTAMYYCVRPYDNYGQGTLVTVSA
VL: DIVLTQSPASLAVSLGQRATISCRASKSVSTSGYSYMHWYQQKPGQPPKLLIYLASNLESGVPARFSGSGSGTDFTLNIHPVEEEDAATYYCQHSRELPWTFGGGTKLEIK
notes: Data marked * were generated with hybridoma / purified hybridoma supernatant; also called 946.9D6F3
Kd (Peptide 29 [11]): 2.29 nM | koff (Peptide 29 [11]): 0.000707 s⁻¹ | kon (Peptide 29 [11]): 309000 M⁻¹ s⁻¹

B7: ACI-8072-946.4G5-Ab1 (antibody, V domains shown)
VH: EVQLVESGGGLVKPGGSLKLSCAASGFTFSDYGMHWVRQAPEKGLEWVAYISSGSSTIYYADTVKGRFTMSRDNAKNTLFLQMTSLRSEDTAMYYCSRPYGNYGQGTLVTVSA
VL: DVLMTQTPLSLPVSLGDQASISCRSSQSIVHSNGNTYLEWYLQKPGQSPKLLIYKVSNRFSGVPDRFSGSGSGTDFTLKISRVEAEDLGVYYCFQGSHVPRTFGGGTKLEIK
notes: also called 946.4G5F1; pS409/pS410 TDP-43 antibody
EC50 (Peptide 29 [8]): 1.96 nM | Kd (Peptide 29 [9]): 1.68 nM | koff (Peptide 29 [9]): 0.000817 s⁻¹ | kon (Peptide 29 [9]): 487000 M⁻¹ s⁻¹ | EC50 (Peptide 29 [10]): 0.196 nM

B8: ACI-7069-636E5-Ab1 (as described in WO2020234473) (antibody, V domains shown)
VH: EVHLVESGGDLVMPGGSLKLSCAASGFTFSNYGMSWVRQTPDKRLEWVATISSGGKYINYLDSLKGRFTISRDNAKNTLYLQMSSLKSEDTAMYYCAKDYGSGWAWFAYWGQGTLVTVSA
VL: QLVLTQSSSASFSLGASAKLTCTLSSQHSTYTIEWYQQQPLKPPKYVMELKKDGSHSTGDGIPDRFSGSSSGADRYLSISNIQPEDEAIYICGVGDTIKEQFVYVFGGGTKVTVL
notes: also called 636E5B8
EC50 [12]: 0.07 nM | EC50 [13]: 1.16 nM

Second part, the binder after the results:

binding result [1]: no binding (tested: peptide at 0.5 mM) | binding result [2]: no binding (tested: peptide at 0.5 mM) | binding result [3]: no binding (tested: peptide at 0.5 mM) | binding result [4]: no binding (tested: peptide at 0.5 mM)
B1: ACI-8071-943.7D3-Ab1 (antibody, V domains shown)
VH: QVQLQQPGTELVKPGASVKLSCKASGYTFTRYWMHWMKQRPGQGLEWIGNINPSDGGTNYNEKFKNKASLTVDKSSSTAYMQLSRLTSEDSAVYYCARRGSGYWGQGTTLTVSS
VL: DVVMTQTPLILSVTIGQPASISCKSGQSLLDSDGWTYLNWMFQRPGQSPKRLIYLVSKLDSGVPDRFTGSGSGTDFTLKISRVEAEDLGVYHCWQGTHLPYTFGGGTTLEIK
notes: also called 943.7D3E2; pS403/pS404 TDP-43 antibody

binding result [1]: no binding (tested: peptide at 0.5 mM) | binding result [5]: no binding (tested: peptide at 0.5 mM) | binding result [2]: no binding (tested: peptide at 0.5 mM) | binding result [6]: no binding (tested: peptide at 0.5 mM) | binding result [3]: no binding (tested: peptide at 0.5 mM) | binding result [4]: no binding (tested: peptide at 0.5 mM) | binding result [7]: no binding (tested: peptide at 0.5 mM)
B2: ACI-8071-943.2E6-Ab1 (antibody, V domains shown)
VH: QVQLQQPGTELVKPGASVKLSCKASGYTFTSYWMHWVKQRPGQGLEWIGNINPINSDTNYNEKFKTKATLTVDKSSSTAYMQLSSLTSEDSAVYYCARRGSGYWGQGTTLTVSS
VL: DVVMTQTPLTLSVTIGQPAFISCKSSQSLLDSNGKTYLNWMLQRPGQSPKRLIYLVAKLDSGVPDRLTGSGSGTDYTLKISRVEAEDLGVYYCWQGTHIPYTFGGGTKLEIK
notes: also called 943.2E6E10; pS403/pS404 TDP-43 antibody

binding result [1]: no binding (tested: peptide at 0.5 mM) | binding result [2]: no binding (tested: peptide at 0.5 mM) | binding result [3]: no binding (tested: peptide at 0.5 mM) | binding result [4]: no binding (tested: peptide at 0.5 mM)
B3: ACI-8071-943.7H9-Ab1 (antibody, V domains shown)
VH: EIQLQQSGTVMARPGASVKMSCKTSGYIFTNYWMHWVKQRPGQGLDWIGTIYPGNSDTDYNQNFKGKAKLTAVTSASTAYMELSSLTNEDSAVYFCIRGGWGGFPYWGQGTLVTVSA
VL: DVVMTQIPLSLPVSLGDQASISCRSSQRLVHSNGNTYLHWYLQKPGQSPKFLIHKVSNRFSGVPDRFSGSGSGTDFTLKIRRVEAEDLGVYFCCQSTHVPYTFGGGTKLEIK
notes: also called 943.7H9H8; pS403/pS404 TDP-43 antibody

binding result [1]: no binding (tested: peptide at 0.5 mM) | binding result [5]: no binding (tested: peptide at 0.5 mM) | binding result [2]: no binding (tested: peptide at 0.5 mM) | binding result [6]: no binding (tested: peptide at 0.5 mM) | binding result [3]: no binding (tested: peptide at 0.5 mM) | binding result [4]: no binding (tested: peptide at 0.5 mM) | binding result [7]: no binding (tested: peptide at 0.5 mM)
B4: ACI-8071-943.12A8-Ab1 (antibody, V domains shown)
VH: EVQLVESGGGLVHPKGSLQLSCAASGFTFNTYTMHWVRQAPGKGLEWVARIRSKRSNYATYYADSVKDRFTISRDDSQSMLYLQMNNLKTEDTAIYYCVRGTGSYWGQGTSVTVSS
VL: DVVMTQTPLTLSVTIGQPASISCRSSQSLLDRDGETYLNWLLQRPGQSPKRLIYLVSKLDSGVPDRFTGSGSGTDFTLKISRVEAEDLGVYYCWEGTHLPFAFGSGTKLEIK
notes: also called 943.12A8B4; pS403/pS404 TDP-43 antibody
